According to US10947317B2, “NaPi2b-targeted antibody-drug conjugates and methods of use thereof” (Mersana Therapeutics, Inc., priority 2016, dated 2021):

Legend:
TOV-21G cells = assay: Cell surface binding by flow cytometry, TOV-21G; design: species or system human; settings: on ice 3 hours
Method: (§1) The cell surface binding of the Example 1C, XMT 1535-(EG2-MI-(10 kDa PHF-BA-(AF-HPA-Ala))) and anti-NaPi2B antibody XMT 1535, to antigen expressing cells was evaluated by flow cytometry. TOV-21G or OVCAR3 cells were grown overnight to approximately 90% confluent cultures in media, then were released from the plate surface by treatment with Trypsin-EDTA (Gibco-Thermo Fisher Scientific, USA). The detached cells were washed once with ice cold media containing 6% goat serum and resuspended in the same media. 50,000 cells were aliquoted per well of a V-bottom, 96-well plate and incubated with a range of test articles concentrations (0.23-500 nM) in 100 μl Media (1:1 mixture MCDB105 (1.5 g/L sodium bicarbonate) and Medium 199 (2.2 g/L sodium bicarbonate plus 15% FBS)) with 6% goat serum on ice for 3 hours. […] The amount of fluorescence bound per cell was determined by running 5000 cells for each treatment on a MACSQuant flow cytometer (Miltenyi Biotec, Bergisch Gladbach, Germany). The median fluorescence value for each treatment was graphed, and the binding constant, KD was calculated for each test article with GraphPad Prism software by non-linear regression using the one site specific binding model.

OVCAR3 cells = assay: Cell surface binding by flow cytometry, OVCAR3; settings: on ice 3 hours
Method: as §1

[1] = Single-dose toxicity study in cynomolgus monkeys; assay type: in vivo
Method: The conjugate was administered to groups of 2 animals/sex at 0 mg/kg (Group 1), 1.25 mg/kg (1074 μg/m^2 auristatin payload equivalents; Group 2), 2.5 mg/kg (2147 μg/m^2 auristatin payload equivalents; Group 3) or 5 mg/kg (or 4294 μg/m^2 auristatin payload equivalents; Group 4) as a single iv infusion. Blood was collected for hematology, coagulation, and serum chemistry analysis from all groups on days −7, 3, 8, 15, and 22. Blood samples were also collected at predose, 10 minutes, 1, 6, 24, 48, 72, 96, and 168 hours following the end of the IV infusions, and on days 15 and 22 for the PK determination.

[2] = Recovery Necropsy, 1.25 mg/kg single iv infusion
[3] = Recovery Necropsy, 2.5 mg/kg single iv infusion
[4] = Recovery Necropsy, 5 mg/kg single iv infusion
[5] = Terminal Necropsy, 1.25 mg/kg single iv infusion
[6] = Terminal Necropsy, 2.5 mg/kg single iv infusion
[7] = Terminal Necropsy, 5 mg/kg single iv infusion
[8] = single iv infusion 1.25-5 mg/kg
[9] = single iv infusion up to 5 mg/kg

XMT-1535-(EG2-MI-(10 kDa PHF-BA-(AF-HPA-Ala))) [Example 1C]
Kd (TOV-21G cells): 3.97 nM
Kd (OVCAR3 cells): 3.84 nM
moribundity ([1]; Groups 2, 3, and 4 (1.25, 2.5, 5 mg/kg)): no moribundity
Test article related findings, Bone Marrow [1, 2]: None
Test article related findings, Cecum [1, 2]: None
Test article related findings, Liver [1, 2]: None
Test article related findings, Lung [1, 2]: None
Test article related findings, Stomach [1, 2]: None
Test article related findings, Testes [1, 2]: None
Test article related findings, Urinary Bladder [1, 2]: None
Test article related findings, Bone Marrow [1, 3]: None
Test article related findings, Cecum [1, 3]: None
Test article related findings, Liver [1, 3]: None
Test article related findings, Lung [1, 3]: None
Test article related findings, Stomach [1, 3]: None
Test article related findings, Testes [1, 3]: None
Test article related findings, Urinary Bladder [1, 3]: None
Test article related findings, Bone Marrow [1, 4]: None
Test article related findings, Cecum [1, 4]: None
Test article related findings, Liver [1, 4]: None
Test article related findings, Stomach [1, 4]: None
Test article related findings, Testes [1, 4]: None
Test article related findings, Urinary Bladder [1, 4]: None
Test article related findings, Bone Marrow [1, 5]: None
Test article related findings, Cecum [1, 5]: None
Test article related findings, Liver [1, 5]: None
Test article related findings, Lung [1, 5]: None
Test article related findings, Testes [1, 5]: None
Test article related findings, Urinary Bladder [1, 5]: None
Test article related findings, Bone Marrow [1, 6]: None
Test article related findings, Liver [1, 6]: None
Test article related findings, Lung [1, 6]: None
Test article related findings, Stomach [1, 6]: None
Test article related findings, Testes [1, 6]: None
Test article related findings, Urinary Bladder [1, 6]: None
Test article related findings, Bone Marrow [1, 7]: None
Test article related findings, Cecum [1, 7]: None
Test article related findings, Testes [1, 7]: None
therapeutic index ([1]; based on the efficacy and the non-human primate toxicological study): about 6
test article related findings in recovery animals ([1]; recovery necropsy, one in each tissue): in the liver (Groups 2 to 4), spleen (Groups 3 and 4), and lung (Group 4) but none of these were considered adverse
persistence of alterations ([1]; recovery period): None of the alterations detected persisted through the recovery period
albumin levels [1, 8]: decreased
albumin to globulin ratios [1, 8]: decreased
aspartate aminotransferase (AST) levels [1, 8]: elevated
creatine kinase (CK) levels [1, 8]: elevated
globulin concentrations [1, 8]: increased
gross findings at necropsy or related body weight loss [1, 8]: no test article gross findings at necropsy or related body weight loss
monocytes [1, 8]: monocytosis
myelosuppression [1, 8]: no myelosuppression
neutropenia [1, 8]: no neutropenia
neutrophil counts [1, 8]: transient increase
bone marrow toxicity [1, 9]: no evidence of bone marrow toxicity
target-mediated toxicity [1, 9]: no observed target-mediated toxicity
tolerability ([1]; single iv infusion up to 5 mg/kg (4294 μg/m^2 auristatin payload equivalents)): well tolerated
adverse changes involving the gastrointestinal tract ([1]; terminal necropsy): One animal in all groups was affected
